Here are results for one molecule from patent US20070292420A1 (Janssen / Centocor, published 2007).

Test [1] concerns the target T1, recombinant human IL-6 (human, UniProt P05231 30-212).
T1 construct: Bought recombinant protein; also called rhIL-6; HuIL-6
Nature of the test: solid phase EIA, plate coated with recombinant human IL-6 at 1 µg/mL, detection with HRP goat anti-human IgG, OD 490. Here is the method:
A solid phase EIA was used to assess binding characteristics of cCLB8 Mab to human IL-6. Briefly, plates were coated with recombinant human IL-6 (RDI) at 1 μg/mL in PBS overnight at 4° C. After washing in 0.15M saline containing 0.02% (v/v) Tween 20, the wells were blocked with 1% (w/v) BSA in PBS, 200 μL/well for 1 hour at RT. Purified antibody was incubated in two-fold serial dilutions from a starting concentration of 5 μg/mL for 1 hour at 37° C. The plate was washed and then probed with 50 μL/well HRP-labeled goat anti-human IgG (Tago) diluted 1:20,000 in 1% BSA-PBS for 1 hour at RT. The plate was again washed and 100 μL/well of the citrate-phosphate substrate solution (0.1 M citric acid and 0.2M sodium phosphate, 0.01% H₂O₂ and 1 mg/mL OPD) was added for 15 minutes at RT. Stop solution (4N sulfuric acid) was then added at 25 μL/well and the absorption at 490 nm quantitated using an automated plate photometer.

For test [2], the target named is T1, recombinant human IL-6. Nature of the test: SPR (BIAcore 2000, 25 C); cCLB8 captured on anti-human Fc, IL-6 as analyte; 1:1 model. The protocol: (§1) An anti-human Fc (1.8 mg/ml) was diluted to a concentration of 50 μg/ml in NaOAc buffer (10 mM, pH 4.8) and coupled to the carboxymethylated dextran matrix of a CM-5 sensor chip using the manufacturer's amine-coupling chemistry as described in the BIAcore systems manual. Using the surface preparation wizard aiming for 10000 RU, the carboxyl groups on the sensor surfaces were first activated with NHS/EDC followed by the addition of the anti-human Fc. The remaining activated groups were blocked by the injection of 1M ethanolamine. Each of the flow cells was coupled individually. Employing these conditions, the four flow cell surfaces containing 7554-9571 resonance units (RU) of anti-human Fc were prepared. In preliminary experiments, it was determined that three injections (15 ul at 30 μl/min) 100mM H3PO4/0.05% CHAPS would efficiently remove the bound immunoglobulin and preserve the binding capacity of the immobilized anti-human Fc.
(§2) Two experiments were performed on the BIAcore 2000 at 25 °C and a flow rate of 30 μL/min. cCLB8 was dissolved in HBS at 5 ug/ml. […] A designated amount of antibody was flowed over its respective flow cell followed by injections of 30 μl of each IL-6 concentration at 30 μl/min (association phase) and an uninterrupted 800 seconds of buffer flow (dissociation phase). The surface of the chip was regenerated by three sequential injections of 15 μl each with 100 mM H3PO4/0.05% CHAPS. The injections of HBS serve as a reference (blank sensogram) for the subtraction of bulk refractive indices for analysis. Using the 1:1 model in BIAanalysis 3.0, a local fit was done for both dissociation (kd, [s−1] and association (ka, [M-1s−1]) and the dissociation constant (KD, [M]) calculated (kd/ka).
(§3) Analysis was done using BIAevaluation version 3.0. Kinetic constants were derived from sensogram data by fitting the experimental curves to the rate equations derived from models of the interaction mechanism. A global analysis using a 1:1 binding model with local RUmax fit, the ka, kd, KD were determined (Table 1).
On the technique in general: SPR reads the build-up and loss of mass on a sensor chip optically.

The target of test [3] is T1, recombinant human IL-6. Kind of test: SPR (BIAcore 2000, 25 C); cCLB8 captured on anti-human Fc, IL-6 as analyte; 1:1 model; second experiment. The protocol: as §1, §2, §3
In test [4] the target is T1, recombinant human IL-6. Nature of the test: cell-based or functional assay.

B1: chimeric CLB8 anti-human IL-6 monoclonal antibody (antibody, IgG1, V domains shown)
VH: EVQLVESGGKLLKPGGSLKLSCAASGFTFSSFAMSWFRQSPEKRLEWVAEISSGGSYTYYPDTVTGRFTISRDNAKNTLYLEMSSLRSEDTAMYYCARGLWGYYALDYWGQGTSVTVSS
VL: QIVLIQSPAIMSASPGEKVTMTCSASSSVSYMYWYQQKPGSSPRLLIYDTSNLASGVPVRFSGSGSGTSYSLTISRMEAEDAATYYCQQWSGYPYTFGGGTKLEIK
notes: Murine CLB-8 variable regions joined to human constant regions; IgG1 and kappa are named only as preferred; also called anti-IL-6 cCLB-8 antibody; CNTO 328
Regarding B1, the concentration giving a half-maximal response (EC50 (read off the curve)) (as a rule, the concentration giving half of the maximal effect) with recombinant human IL-6 [1] is around 4 ng/mL. For the same molecule, in the test with recombinant human IL-6 [2], the Kd (as a rule, the constant that tells how readily two partners part at equilibrium) worked out at 0.057 nM; the off-rate (koff) (commonly a measure of how fast the partners let go of each other) came to 6.2e-05 s⁻¹; the kon (as a rule, a measure of how fast the partners come together) was found to be 1.1e+06 M⁻¹ s⁻¹. Besides, in the test with recombinant human IL-6 [3], the Kd was found to be 0.14 nM, the koff came out at 5.2e-05 s⁻¹ and the kon is 370000 M⁻¹ s⁻¹. The “EC50 of inhibition of IL-6 induced 7TD1 cell proliferation (luminescent ATP assay)” value with recombinant human IL-6 [4] was 7.2 ng/mL.
